T1: His-MIF (His-tag/T7 gene 10 leader/Xpress-MIF fusion) (UniProt P14174 P14174:1-115)
T1 chain: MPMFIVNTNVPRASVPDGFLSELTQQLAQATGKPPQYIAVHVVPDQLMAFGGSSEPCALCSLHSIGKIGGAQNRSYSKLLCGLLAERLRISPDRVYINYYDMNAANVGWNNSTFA


Key:
[1] = target: T1, His-MIF (His-tag/T7 gene 10 …); experiment: SPR; 600 nM His-MIF; settings: MIF 115 aa; ATGen
Description: (§1) A molecular interaction between each of the RNA aptamers and each of fusion proteins, i.e., a binding ability of each of the RNA aptamers to each of the fusion proteins was analyzed using surface plasmon resonance. The analysis of the binding ability was performed using BiacoreX (GE Healthcare UK Ltd.) according to the instruction thereof. Specifically, first, polyadenine having 20 bases was added to the 3′-end of the RNA aptamer. Thus, polyadenine-added RNA aptamer was prepared. This was then heated at 95° C. for 5 minutes and rapidly cooled on ice. Biotinylated polythymine having 20 bases obtained by biotinylating the 5′-end of polythymine had been bound to a streptavidin chip (Sensor chip SA, GE Healthcare UK Ltd.). The polyadenine-added RNA aptamer was introduced into a flow cell on the streptavidin chip using a running buffer. At this stage, the polyadenine-added RNA aptamer was immobilized on the chip via the biotinylated polythymine by complementary binding between poly A of the polyadenine-added RNA aptamer and the biotinylated polythymine. The polyadenine-added RNA aptamer was caused to bind to the biotinylated polythymine until a resonance unit (RU) (resonance unit; 1 RU=1 pg/mm²) reaches 700 RU. Subsequently, HBS (Hepes Buffered Saline) containing the fusion protein with a predetermined concentration was introduced into the chip using a running buffer, and a signal (RU) was measured. The composition of the running buffer includes 10 mmol/L HEPES (4-(2-hydroxyethyl)-1-piperazine ethanesulfonic acid), 150 mmol/L sodium chloride, 0.1 mmol/L magnesium acetate, and 0.01% Tween (registered trademark) 20 (pH 7.2). As a control, an introduction of the fusion protein and a measurement of a signal were performed in the same manner as described above using a chip to which biotinylated polythymine had been bound, on which no polyadenine-added RNA aptamer had been immobilized.
A binding ability of each of these RNA aptamers to His-MIF was analyzed by surface plasmon resonance in the same manner as in “1. (4) Molecular interaction analysis” of Example 1.

[2] = target: T1, His-MIF (His-tag/T7 gene 10 …); experiment: SPR; 600 nM His-MIF; excellent binding; settings: MIF 115 aa; ATGen
Description: as §1, with “The polyadenine-added RNA aptamer was caused to bind to the biotinylated polythymine until a resonance unit (RU) (resonance unit; 1 RU=1 pg/mm²) reaches 700 RU.” left out, “The composition of the running buffer includes 10 mmol/L HEPES (4-(2-hydroxyethyl)-1-piperazine ethanesulfonic acid), 150 mmol/L sodium chloride, 0.1 mmol/L magnesium acetate, and 0.01% Tween (registered trademark) 20 (pH 7.2). As a control, an introduction of the fusion protein and a measurement of a signal were performed in the same manner as described above using a chip to which biotinylated polythymine had been bound, on which no polyadenine-added RNA aptamer had been immobilized.” left out
A binding ability of each of these RNA aptamers to His-MIF was analyzed by surface plasmon resonance in the same manner as in “1. […]

[3] = target: T1, His-MIF (His-tag/T7 gene 10 …); experiment: SPR; 600 nM His-MIF; settings: MIF 115 aa, ATGen
Description: as §1
A binding ability of each of the RNA pools in the respective rounds to His-MIF was analyzed by surface plasmon resonance in the same manner as in “1. (4) Molecular interaction analysis” of Example 1. […] N40 (control RNA) also was analyzed in the same manner as mentioned above.

[4] = target: T1, His-MIF (His-tag/T7 gene 10 …); experiment: SPR; 10 mM HEPES, 150 mM NaCl, 0.1 mM Mg acetate, 0.01% Tween 20, pH 7.2; RNA immobilised; settings: MIF 115 aa; ATGen; label: biotin-T20 hybridised to tail; stem-loop
Description: as §1, with “The polyadenine-added RNA aptamer was caused to bind to the biotinylated polythymine until a resonance unit (RU) (resonance unit; 1 RU=1 pg/mm²) reaches 700 RU.” left out, “The composition of the running buffer includes 10 mmol/L HEPES (4-(2-hydroxyethyl)-1-piperazine ethanesulfonic acid), 150 mmol/L sodium chloride, 0.1 mmol/L magnesium acetate, and 0.01% Tween (registered trademark) 20 (pH 7.2). As a control, an introduction of the fusion protein and a measurement of a signal were performed in the same manner as described above using a chip to which biotinylated polythymine had been bound, on which no polyadenine-added RNA aptamer had been immobilized.” left out

[5] = target: T1, His-MIF (His-tag/T7 gene 10 …); experiment: SPR; same as shot47; settings: MIF 115 aa, ATGen, stem-loop
Description: as §1, with “The polyadenine-added RNA aptamer was caused to bind to the biotinylated polythymine until a resonance unit (RU) (resonance unit; 1 RU=1 pg/mm²) reaches 700 RU.” left out, “The composition of the running buffer includes 10 mmol/L HEPES (4-(2-hydroxyethyl)-1-piperazine ethanesulfonic acid), 150 mmol/L sodium chloride, 0.1 mmol/L magnesium acetate, and 0.01% Tween (registered trademark) 20 (pH 7.2). As a control, an introduction of the fusion protein and a measurement of a signal were performed in the same manner as described above using a chip to which biotinylated polythymine had been bound, on which no polyadenine-added RNA aptamer had been immobilized.” left out
A binding ability of each of downsized RNA aptamers to His-MIF as a fusion protein was analyzed by the molecular interaction analysis. […]

Row | Binder | binding result [1] | binding signal [3] [His-MIF/RNA bonds] | other results
1 | His_6 (ssRNA, 3' A20 tail for capture) RNA: GGGACGCUCACGUACGCUCAGGUGUAUUGGAUUUGCUCCGAGGGUGUAGACCCCACAGAUUCAGUGCCUGGACGUGCAGU | binds |  | 
2 | His_4 (ssRNA, 3' A20 tail for capture) RNA: GGGACGCUCACGUACGCUCAUAAGGGUGUACUGGCGAUUGUUGGGACGCACUUCAAUUUGUCAGUGCCUGGACGUGCAGU | binds |  | 
3 | His_1 (ssRNA, 3' A20 tail for capture) RNA: GGGACGCUCACGUACGCUCAGGUGAACUGGUCCGCAUUUAGCUUUCUUAUUUGCGGGUAUUCAGUGCCUGGACGUGCAGU |  |  | binding result [2]: binds
4 | #716 (ssRNA, 3' A20 tail for capture) RNA: GGGACGCUCACGUACGCUCACCUGUUUUGUCUAGGUUUAUUGGCGCUUAUUCCUGGAAUGUCAGUGCCUGGACGUGCAGU |  | 0.99 | 
5 | shot47 (ssRNA, 3' A20 tail for capture) RNA: GGGACGCUCACGUACGCUCACGUCCGAUCGAUACUGGUAUAUUGGCGCCUUCGUGGAAUGUCAGUGCCUGGACGUGCAGU |  |  | Kd [4]: 3.78 pM; binding signal ([3]; label: biotin-T20 hybridised to tail, stem-loop): 1.88 His-MIF/RNA bonds
6 | His_2 (ssRNA, 3' A20 tail for capture) RNA: GGGACGCUCACGUACGCUCAGGUGAAUUGGCCGCCGUUCUUUCCGUGGAAUGACGCGAUGUCAGUGCCUGGACGUGCAGU | binds |  | 
7 | #714 (ssRNA, 3' A20 tail for capture) RNA: GGGACGCUCACGUACGCUCAGGUUUAUUGGUGCCGUGUAGUGGAAUAUCAGUGCCUGGACGUGCAGU |  | 1.01 | 
8 | His_5 (ssRNA, 3' A20 tail for capture) RNA: GGGACGCUCACGUACGCUCAGAACCCGUAUUGGUCACAGGUGGAUUGGUCUAUAUUGUUAUCAGUGCCUGGACGUGCAGU | binds |  | 
9 | #733 (ssRNA, 3' A20 tail for capture) RNA: GGGACGCUCACGUACGCUCACUUCCCUAGACCCUCCAGGUUACAGGCGCCGCCCGGAAUGUCAGUGCCUGGACGUGCAGU |  | 0.86 | 
10 | His_10 (ssRNA, 3' A20 tail for capture) RNA: GGGACGCUCACGUACGCUCAUUAGCUUAGCUUCAUGCCCGGGUGUACUGGAGAUCUCUUAUCAGUGCCUGGACGUGCAGU | binds |  | 
11 | #713 (ssRNA, 3' A20 tail for capture) RNA: GGGACGCUCACGUACGCUCACAACACUCGAAGGGUUUAUUGGCCCCACCAUGGUGGAAUGUCAGUGCCUGGACGUGCAGU |  | 0.88 | 
12 | #704 (ssRNA, 3' A20 tail for capture) RNA: GGGACGCUCACGUACGCUCAUGUUCCUUUGGGUUAUUGGCUCCUUGUUGACCAGGGGAUGUCAGUGCCUGGACGUGCAGU |  | 0.96 | 
13 | #47s (ssRNA, 3' A20 tail for capture) RNA: GGGUACGCUCAGGUAUAUUGGCGCCUUCGUGGAAUGUCAGUGCCUGGACGUGCAGU |  |  | binding result [5]: binds
14 | #727 (ssRNA, 3' A20 tail for capture) RNA: GGGACGCUCACGUACGCUCACUCAGGUGAUUGGCGCUAUUUAUCGAUCGAUAAUUGAAUGUCAGUGCCUGGACGUGCAGU |  | 1.05 | 
15 | GGGUAUAUUGGCGCCUUCGUGGAAUGUCAGUGCCUGG (ssRNA, 3' A20 tail for capture) [shot47sss] |  |  | binding result ([5]; label: biotin-T20 hybridised to tail (ELISA)): binds
16 | His_3 (ssRNA, 3' A20 tail for capture) RNA: GGGACGCUCACGUACGCUCAGGUGUACUGGCACUACUGAAAUUUCAUUUGAGUAGGUCUGUCAGUGCCUGGACGUGCAGU | binds |  | 
